Results: the DeepSol protein solubility set

Test: soluble on expression in E. coli; label from the status in PepcDB or PDB records

| Sequence | soluble on expression in E. coli |
| --- | --- |
| MGSDKIHHHHHHACSQKQPIQATVTPSDPVVGEEIFFSDSTSGARIWYWEFGNNETSTQRSGYHRFKQKGVYKIRLTVNGNLERYFDVRVKEKTNAEDLHLVHIIAPKEAIQGENIIFRGEGHDEQWRWEFGETGMIDSREKTALYAYTEPGEYEVLLNTENTRYPIRHRINILPYYSENDSTDVMVLIGLDIKEKLQNIADGKPFNVNYNYVVDKYFNNNPNTLVIVNNNKYNDFYSYCQGLHHIGRKETIIQNVIVETEDEESGYITQITVMQIEKKK | not soluble |
| MGSDKIHHHHHHMSWEISGTYVGSCTCQLICPCPVDGLPTGPDGECRGLNVFHIASGKMDDTDLSGVDFAFANWFPSHLTAGGWKVGAVVDDAASDAQVRALGSILRGEAGGPFGDLAALYGEWLGLERAGVKFSGGDTPAGSVADRVVITFEPLPGPDGGVTTVKNAMYGFAPEFQIGKGTGHPDLFGLAFDGVYGETSDFSFASEMAEGAPKGRG | not soluble |
| MSTPFGLDLGNNNSVLAVARNRGIDIVVNEVSNRSTPSVVGFGPKNRYLGETGKNKQTSNIKNTVANLKRIIGLDYHHPDFEQESKHFTSKLVELDDKKTGAEVRFAGEKHVFSATQLAAMFIDKVKDTVKQDTKANITDVCIAVPPWYTEEQRYNIADAARIAGLNPVRIVNDVTAAGVSYGIFKTDLPEGEEKPRIVAFVDIGHSSYTCSIMAFKKGQLKVLGTACDKHFGGRDFDLAITEHFADEFKTKYKIDIRENPKAYNRILTAAEKLKKVLSANTNAPFSVESVMNDVDVSSQLSREELEELVKPLLERVTEPVTKALAQAKLSAEEVDFVEIIGGTTRIPTLKQSISEAFGKPLSTTLNQDEAIAKGAAFICAIHS | not soluble |
| MTPTPLHSITPFSMLDFPSMLSCILWFSGCNLACSYCYNPEFLKESGKIDLEGLLSFLRSRVGLLEGVVFSGGEATLFAGLPLWMEEVRSLGFKIKLDTNGTNPAMLKELLQKGYLDYVAMDFKGKEERFGMITGREFYGRFLESLEILLSSSIPFEIRTTVHSYLLQEEDIAEMAALLKERG | not soluble |
| MTDIKMIALGGVREYGKNFYLVEINDSMFILDAGLKYPENEQLGVDLVIPNLDYVIENKGKVQGIFLSHGHADAIGALPYLLAEVSAPVFGSELTIELAKLFVKSNNSTKKFNNFHVVDSDTEIEFKDGLVSFFRTTHSIPESMGIVIGTDKGNIIYTGDFKFDQAAREGYQTDLLRLAEIGKEGVLALLSDSVNATSNDQIASESEVGEEMDSVISDADGRVIVAAVASNLVRIQQVFDSATAHGRRVVLTGTDAENIVRTALRLEKLMITDERLLIKPKDMSKFEDHELIILEAGRMGEPINSLQKMAAGRHRYVQIKEGDLVYIVTTPSTAKEAMVARVENLIYKAGGSVKLITQNLRVSGHANGRDLQLLMNLLKPQYLFPVQGEYRDLAAHAKLAEEVGIFPENIHILKRGDIMVLNDEGFLHEGGVPASDVMIDGNAIGDVGNIVLRDRKVLSEDGIFIVAITVSKKEKRIISKAKVNTRGFVYVKKSHDILRESAELVNTTVGNYLKKDTFDWGELKGNVRDDLSKFLFEQTKRRPAILPVVMEVR | not soluble |
| MDFGKTNSKLFVFGQDGGILDERRTQPKWTHQDGFSVLDEAALHDWALGAVTEAVENHGVEGVMVSGHGCTFALVDDAALTHPILDYEQEPPAEIAARIDHRIPDFAETFSPRLPLGFNYGRHMLWVQEVDPDAFAAAKSILGYPQYWSWRLGGRPVSEVSYLGCHSHLWAPRSQDFSSLVDAEGWRGQMPAFARAGAVIGERRLGSSSRPIAIHNGVHDSNAALHAYRRQELGLEHHHHHH | soluble |
| MGSDKIHHHHHHMSEEPRYLAVDVGGTNLKYALINRSGQMIKKSRMETPHEGLTQFLEAIEKISDKLKGQLNGVAFSTPGRVDTTTDTIYCRNSTLPYLNEVCLPRKLQKLGLPISVENDGKSAALAESWLGNLNDVKNGMAIVLGTCVGGGIMLDGHLWAGSRRLAGEVSLMPADQTNLADDGLFGKTGSAVRMIEAVNTVIGASCLTDGHCAFAAINAGQAQATQIFRQYAREVAALILNVQTVLDLDRYVIGGGISFQPILIDEINRQYDWILERRPWVKSTIARPEILSSRFHNDANLYGALYRLFNKLDAKHDVPIDLDNLLVNAGR | not soluble |
| MGETTAEAKKDPSSIRVVALDWRYEEILHALGITPVGIVEIGKSKEPQTLKGELEGVTSVGQAKQPNLEVIQSLEPDLILASPTRQAAIMDQLKEIAPTHAYGDTSYTEVLDAMDDIATKVGAEDKAKEVRTRIESKIAQAKNKVEPGTRTALIGWSKNTLYTWVKDSFAGSLLTAAGYEYGYDGEKSAIESKTDVAELTGDKLPEMKLDVMYLYNDIEGFRSSPYADVVSNIVDVEQDTWSRSRGPLAAEAMLDQIINSLEHHHHHH | not soluble |
